Results as given in US12448442B2, “Treatment of T cell lymphoma” (INNATE PHARMA, priority 2019, dated 2025).

Assays:
Hut78 cells = experiment: KIR3DL2 surface expression by flow cytometry on Hut78 cells; type: cell-based; details: Hut78 / TCL cells
Description: (§1) RAJI-KIR3DL2 (48 hour incubation) (FIG. 2, left hand panel) or Hut 78 ([…]; 24 hour incubation (FIG. 2, right hand panel) were incubated with ascending doses of gemcitabine and oxaliplatin. Median intensity of fluorescence of KIR3DL2 on tumor cell line surface was analyzed by flow cytometry.
(§2) Briefly, Hut78 cells (Sezary Syndrome cell line) or RAJI-KIR3DL2 cells (RAJI B-NHL cell line transfected with human KIR3DL2 were incubated with ascending doses of gemcitabine and oxaliplatin. Median intensity of fluorescence of KIR3DL2 on tumor cell line surface was analyzed by flow cytometry.

RAJI-KIR3DL2 cells = experiment: KIR3DL2 surface expression by flow cytometry on RAJI-KIR3DL2 cells; type: cell-based; details: RAJI-KIR3DL2, same experimental conditions
Description: as §1, §2

RAJI-KIR3DL2 = type: in vivo; details: twice a week; antibody 0.3 μg per injection, gemcitabine 50 mg/kg, oxaliplatin 5 mg/kg; FIG. 3
Source text: A xenograft model in the CB17-SCID mouse whereby the immunocompromised mouse strain that retains fully functional NK cells and macrophages. […] The B-NHL cell line RAJI was transfected to stably express KIR3DL2 (RAJI-KIR3DL2), and the transfectants were inoculated (5×10^6 cells) to the SCID mice by IV thereby providing a disseminated tumor model. Initially, individual doses of gemcitabine and oxaliplatin were established in this xenograft model.

[1] = test system: KIR3DL2-expressing Sézary Syndrome cell line (Hut 78); experiment: In vitro cellular cytotoxicity (ADCC) assay with allogeneic NK cells and Hut 78 cells, with increasing concentrations of anti-KIR3DL2 antibody; type: cell-based; details: chemotherapeutic agent added to lacutamab, allogeneic NK cells, FIG. 1
Description: Consequently, we sought to evaluate whether chemotherapeutic agents affect the NK cell-mediated ADCC activity of humanized 2B12 antibody lacutamab having human IgG1 isotype and the VH and VL amino acid sequences shown in SEQ ID NOS: 49 and 44, respectively. Chemotherapeutic agents were added, alone or in combination, to an in vitro cellular cytotoxicity (ADCC) assay with allogeneic NK cells and KIR3DL2-expressing Sézary Syndrome cell line (Hut 78), in presence of increasing concentrations of the anti-KIR3DL2 antibody.

refractory SS patients = experiment: Clinical trials of single agent IPH4102 in refractory Sézary Syndrome patients; type: in vivo, human; details: repeated administrations of single agent
Source text: Antibodies that specifically bind to KIR3DL2 are well known in the art. Innate Pharma for example have described numerous anti-KIR3DL2 antibodies directed to a range of different epitopes on KIR3DL2, e.g., antibodies 15C11, 19H12, 22B2, 18B10, 12B11, 13H1, 10F6, 2B12, 18C6, 9E10, 10G5, 13H1, 5H1, 1E2, 1C3 and 20E9 described in PCT publication nos. WO2014/044681 and WO2014/044686. […] These encouraging results, moreover with few side effects and the ability to deplete malignant KIR3DL2-expressing cells without causing the depletion of healthy KIR3DL2-expressing NK and T cells provides an important advance in treating TCLs.

KIR3DL2 [2] = biological target: T1, KIR3DL2 (Homo sapiens, UniProt P43630); design: host or cells: tumor cells (not further named); details: into cells / tumor cells; cited from earlier work
T1 sequence (P43630 22-455): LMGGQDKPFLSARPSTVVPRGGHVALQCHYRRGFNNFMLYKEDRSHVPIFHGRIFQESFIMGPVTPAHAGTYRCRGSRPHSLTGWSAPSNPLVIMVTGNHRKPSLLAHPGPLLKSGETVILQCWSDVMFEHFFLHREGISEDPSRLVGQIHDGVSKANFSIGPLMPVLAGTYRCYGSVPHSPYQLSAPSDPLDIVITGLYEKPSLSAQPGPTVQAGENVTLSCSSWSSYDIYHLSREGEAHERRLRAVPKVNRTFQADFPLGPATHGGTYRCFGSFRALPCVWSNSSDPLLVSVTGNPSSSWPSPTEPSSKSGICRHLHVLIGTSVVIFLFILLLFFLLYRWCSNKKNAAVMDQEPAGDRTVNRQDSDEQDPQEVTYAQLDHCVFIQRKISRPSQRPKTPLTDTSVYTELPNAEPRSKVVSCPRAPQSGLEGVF

KIR3DL2 [3] = biological target: T1, KIR3DL2; details: cited from earlier work
human KIR3DL1 = human KIR3DL1 (Homo sapiens, UniProt P43629); details: cited from earlier work
human KIR3DL1, sequence (P43629 22-444): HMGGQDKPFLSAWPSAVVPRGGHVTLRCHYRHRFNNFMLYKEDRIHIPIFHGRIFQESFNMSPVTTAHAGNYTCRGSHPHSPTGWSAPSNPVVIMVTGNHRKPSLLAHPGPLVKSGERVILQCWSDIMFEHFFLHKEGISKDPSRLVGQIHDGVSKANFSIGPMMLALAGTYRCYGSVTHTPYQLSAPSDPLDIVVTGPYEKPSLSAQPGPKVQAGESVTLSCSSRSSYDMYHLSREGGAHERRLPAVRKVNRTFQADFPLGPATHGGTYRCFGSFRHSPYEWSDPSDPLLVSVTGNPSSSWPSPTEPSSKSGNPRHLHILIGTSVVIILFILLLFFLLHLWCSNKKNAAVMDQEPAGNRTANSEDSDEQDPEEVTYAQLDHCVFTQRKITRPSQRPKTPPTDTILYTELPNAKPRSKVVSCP

O=P1(N(CCCl)CCCl)NCCCO1 (stereo not shown) [cyclophosphamide]
effect on KIR3DL2 expression (Hut78 cells): did not increase KIR3DL2 expression | effect on KIR3DL2 expression (RAJI-KIR3DL2 cells): did not increase KIR3DL2 expression

O=C1[O][Pt]2([NH][C@@H]3CCCC[C@H]3[NH]2)[O]C1=O [oxaliplatin]
anti-tumor activity in vivo (RAJI-KIR3DL2): very limited, if any, anti-tumor effect | effect on anti-KIR3DL2 antibody-induced ADCC / anti-tumor activity against HUT78 [1]: enhanced

Nc1ccn([C@@H]2O[C@H](CO)[C@@H](O)C2(F)F)c(=O)n1 [gemcitabine]
effect on anti-KIR3DL2 antibody-induced ADCC / anti-tumor activity against HUT78 [1]: enhanced

B1: IPH4102: humanized 2B12 anti-KIR3DL2 antibody, human IgG1, VH SEQ ID NO: 49 and VL SEQ ID NO: 44 (antibody, V domains shown)
VH: QIQLVQSGSELKKPGASVKVSCKASGYTFTTAGMQWVRQAPGQGLEWIGWINSHSGVPKYAEDFKGRFVFSLDTSVSTAYLQISSLKAEDTAVYFCARGGDEGVMDYWGQGTTVTVSS
VL: DIQMTQSPSFLSASVGDRVTITCKASQDVSTAVAWYQQKPGQPPKLLIYWTSTRHTGVPDRFSGSGSGTDYTLTISSLQAEDVAVYYCQQHYSTPWTFGGGTKVEIK
median duration of response (DoR) (refractory SS patients): 13.8 months | median progression-free survival (PFS) (refractory SS patients): 11.7 months | overall response rate (ORR) (refractory SS patients): 42.9%

B2: 12B11: anti-KIR3DL2 antibody, VH SEQ ID NO: 16, VL SEQ ID NO: 17 (antibody, listed as Mus musculus, V domains shown)
VH: QLVQSGPELKNPGETVKISCKASGYTFTNYGMNWVKQAPGKGLKWMGWINTYTGEPTYADDFKGRFAFSLETSASTAYLQINNLKNEDTATYFCAHGPWLAYWGQGTLVTVS
VL: DIKMTQSPSSMYASLGERVTITCKASQDINVYLSWFQQKPGKSPKTLIYRAIRLVDGVPSRFSGSGSGQDYSLTISSLDYEDMGIYYCLQYDELPYTFGGGTKLEIE
internalization via KIR3DL2 (KIR3DL2 [2]): capable of being internalized

B3: AZ158: antibody binding human KIR3DL2 and KIR3DL1, VH SEQ ID NO: 3, VL SEQ ID NO: 4 (antibody, V domains shown)
VH: QVQLKESGPGLVAPSQSLSITCTVSGFSLTSFGVHWVRQPPGKGLEWLGVIWAGGSTNYNSALMSRLSISKDNSKSQVFLKMNSLQNDDTAMYYCARGNSNHYVSSFYYFDYWGQGTTLTVSS
VL: DIQMTQSPSSLSASLGGKVTITCKASQDINKYIAWYQHKPGKGPRLLIHYTSTLQPGIPSRFSGSGSGRDYSFSISNLEPEDITTYYCLQYDNLWTFGGGTKLEIK
modifications: mus musculus
binding to KIR3DL2 (KIR3DL2 [3]): binds | binding to KIR3DL1 (human KIR3DL1): binds

B4: 2B12: anti-KIR3DL2 antibody, VH SEQ ID NO: 32, VL SEQ ID NO: 33 (antibody, listed as Mus musculus, V domains shown)
VH: QIQLVQSGPELKKPGETVRISCKASGYTFTTAGMQWVQKTPGKGLKWIGWINSHSGVPKYAEDFKGRFAFSLETSASTAYLQISTLKNEDTATYFCARGGDEGVMDYWGQGTSVTVS
VL: DIVMTQSHKFMSTSLGDRVSFTCKASQDVSTAVAWYQQKPGQSPKLLIYWTSTRHTGVPDRFTGSGSGTDYTLTISSVQAEDLALYYCQQHYSTPWTFGGGTKLEIK
internalization via KIR3DL2 (KIR3DL2 [2]): do not induce any KIR3DL2 internalization

B5: 19H12: anti-KIR3DL2 antibody, VH SEQ ID NO: 5, VL SEQ ID NO: 6 (antibody, V domains shown)
VH: QIQLVQSGPELKKPGETVKISCKASGYTFTNFGMNWVKQAPGKGLKWMGWINTYTGEPTYADDFKGRFAFSLETSASTAYLQINNLKNEDMATYFCARNGNFGYYFDYWGQGTTLTVSS
VL: DVLMTQTPLSLPVSLGDQASFSCRSSQNIVHSNGNTYLEWYLQKPGQSPSLLIYKVSNRFSGVPDRFSGSGSGTDFTLKITRVEAEDLGVYYCFQGSHVPFTFGSGTKLEIK
modifications: mus musculus
internalization via KIR3DL2 (KIR3DL2 [2]): capable of being internalized
